Assay results taken from US20180362652A1 (Biogen, published 2018).

Tests used:
[1] = biological target: T1, human BDCA2 (full-length, cell surface) (human, UniProt Q8WTT0 1-213); assay: FACS
T1 construct: also called huBDCA2; surface human BDCA2
T1 sequence: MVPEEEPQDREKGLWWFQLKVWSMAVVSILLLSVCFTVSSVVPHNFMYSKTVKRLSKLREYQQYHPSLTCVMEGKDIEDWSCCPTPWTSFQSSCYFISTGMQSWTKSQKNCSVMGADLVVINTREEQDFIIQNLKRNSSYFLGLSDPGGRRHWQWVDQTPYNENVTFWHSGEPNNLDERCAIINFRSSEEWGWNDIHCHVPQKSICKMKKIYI

[2] = biological target: T2, cynomolgus monkey BDCA2 (full-length, cell surface, E73 SNP form) (cynomolgus monkey, UniProt Q8WTT0 1-213 (human entry)); assay: FACS
T2 construct: also called cyno BDCA2; surface cynomolgus monkey BDCA2
T2 chain: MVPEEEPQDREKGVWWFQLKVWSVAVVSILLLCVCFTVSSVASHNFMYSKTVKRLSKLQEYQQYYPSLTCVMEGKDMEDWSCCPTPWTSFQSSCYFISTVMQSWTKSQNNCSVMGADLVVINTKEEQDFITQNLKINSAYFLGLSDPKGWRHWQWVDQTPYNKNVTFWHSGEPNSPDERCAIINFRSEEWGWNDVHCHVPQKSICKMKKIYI

[3] = biological target: T1, human BDCA2 (full-length, cell surface); assay: cell-based or functional assay
[4] = biological target: T2, cynomolgus monkey BDCA2 (full-length, …); assay: flow cytometry, whole blood pDCs, average of the twelve cynomolgus monkey donors
Procedure: (§1) The maximal values were taken from the values at the plateau in each assay (FIGS. 24 and 25).
(§2) MFI of PE was calculated with FlowJo software, and EC50 curves were generated in GraphPad Prism software.

[5] = biological target: T3, monomeric huBDCA2 ectodomain (human, UniProt Q8WTT0 45-213); assay: Octet, mAb from conditioned medium on anti-human Fc tips, monomeric huBDCA2 in solution
T3 construct: Prepared by proteolytic cleavage of the purified muIgG2a Fc-huBDCA2 fusion protein (pEAG2423); also called human BDCA2 ectodomain; human BDCA2 ECD
T3 sequence: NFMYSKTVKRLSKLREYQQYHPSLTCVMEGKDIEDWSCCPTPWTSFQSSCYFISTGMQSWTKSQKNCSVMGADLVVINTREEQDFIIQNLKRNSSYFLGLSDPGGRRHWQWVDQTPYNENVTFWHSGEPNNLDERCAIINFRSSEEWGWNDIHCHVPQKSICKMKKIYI
Procedure: Backmutation to the unpaired cysteine, i.e., S95C, was constructed by site-directed mutagenesis producing plasmid pYL749. Variants S95T, S95A, and S95V were constructed by site-directed mutagenesis producing plasmids pYL750, pYL751, and pYL752, respectively. The full-length light chain cDNA sequences in the resultant plasmids were confirmed by DNA sequencing. […] Conditioned medium was harvested at 2 days post-transfection. […] Conditioned medium containing the C95 variant mAbs was assayed by Octet for binding to human BDCA2 ectodomain. Antibodies from conditioned medium from transiently transfected cells were bound to anti-human Fc tips, then monomeric huBDCA2 was flowed over the Octet tips, to examine binding and dissociation.

[6] = biological target: T2, cynomolgus monkey BDCA2 (full-length, …); assay: flow cytometry, whole blood pDCs of cynomolgus monkey donor 1, anti-human IgG PE secondary
Procedure: (§3) The MFI of PE was calculated in FlowJo software, and the percent of maximal binding, using the 40 μg/mL point as 100%, was computed. Each line represents one individual cynomolgus monkey, for a total of twelve cynomolgus monkeys, and graphed using GraphPad Prism software (four-parameter nonlinear regression curve fit of log-transformed data). Staining was repeated once a week for three weeks total.
as §1, §2

[7] = biological target: T2, cynomolgus monkey BDCA2 (full-length, …); assay: flow cytometry, whole blood pDCs of cynomolgus monkey donor 3, anti-human IgG PE secondary
Procedure: as §3, §1, §2

[8] = biological target: T2, cynomolgus monkey BDCA2 (full-length, …); assay: flow cytometry, whole blood pDCs of cynomolgus monkey donor 6, anti-human IgG PE secondary
Procedure: as §3, §1, §2

[9] = biological target: T2, cynomolgus monkey BDCA2 (full-length, …); assay: flow cytometry, whole blood pDCs of cynomolgus monkey donor 9, anti-human IgG PE secondary
Procedure: as §3, §1, §2

[10] = biological target: T2, cynomolgus monkey BDCA2 (full-length, …); assay: flow cytometry, whole blood pDCs of cynomolgus monkey donor 11, anti-human IgG PE secondary
Procedure: as §1, §2

[11] = biological target: the molecule itself; assay: AlphaScreen self-association assay: glutathione donor and acceptor beads carrying human FcRIIa (CD32a) GST; a signal needs antibody on both beads to associate with itself
Procedure: The AlphaScreen assay is a homogeneous proximity assay utilizing glutathione donor and acceptor beads (Perkin Elmer) to bind human FcRIIa (CD32a) GST. Various concentrations of the antibodies to be tested were added in this mixture. […] The level of emission detected by the Envision (Perkin Elmer) instrument is proportional to the degree of self-association.

[12] = biological target: T2, cynomolgus monkey BDCA2 (full-length, …); assay: indirect method: flow cytometry of pDCs in cynomolgus whole blood, unlabelled BIIB059 titrated, free BDCA2 detected with the competitor BIIB059-A647 at 10 ug/mL [panel Cynomolgus monkey 1]
Procedure: (§4) The MFI of PE (open symbols, graphed on the left y-axis) or A647 (closed symbols, graphed on the right y-axis) was calculated in FlowJo software, and graphed using GraphPad Prism software (four-parameter nonlinear regression curve fit of log-transformed data).
as §1

[13] = biological target: T2, cynomolgus monkey BDCA2 (full-length, …); assay: indirect method: flow cytometry of pDCs in cynomolgus whole blood, unlabelled BIIB059 titrated, free BDCA2 detected with the competitor BIIB059-A647 at 10 ug/mL [panel Cynomolgus monkey 8]
Procedure: as §4

EC50 [1]: 7 nM | EC50 [2]: 7 nM | EC50 of BIIB059-mediated BDCA2 internalization (whole blood, 10 donors) [3]: 0.02 µg/mL | IC50 for inhibition of TLR9-induced IFNα production by PBMC [3]: 0.001 µg/mL | IC50 for inhibition of TLR9-induced IFNα production by PBMC from healthy donors [3]: 0.04 µg/mL | IC50 for inhibition of immune complex-induced IFNα by pDCs [3]: 0.04 µg/mL | IC50 of BIIB059 mediated inhibition of TLR9 induced IFNα (whole blood, 10 donors) [3]: 0.07 µg/mL | EC50 [4]: 1.2 µg/mL | Kd [5]: 0.261 nM | EC50 [6]: 0.81 µg/mL | EC50 [7]: 0.95 µg/mL | EC50 [8]: 1.3 µg/mL | EC50 [9]: 1.4 µg/mL | EC50 [10]: 1.4 µg/mL | IC50 (read off the curve) [12]: ~1 µg/mL | IC50 (read off the curve) [13]: ~2 µg/mL
B1: BIIB059 (antibody, human IgG1, kappa)
heavy: not shown
light: DIQLTQSPSSLSASVGDRVTITCKASQSVDYDGDSYMNWYQQKPGKAPKLLIYAASTLESGVPSRFSGSGSGTDFTLTISSLQPEDFATYYCQQANEDPRTFGQGTKVEIKRTVAAPSVFIFPPSDEQLKSGTASVVCLLNNFYPREAKVQWKVDNALQSGNSQESVTEQDSKDSTYSLSSTLTLSKADYEKHKVYACEVTHQGLSSPVTKSFNRGEC
notes: Humanized IgG1 kappa, mature chains; in some assays labelled with Alexa647; also called hu24F4 H4/L1 C95A; H4-L1-C95A (YL751/YL746)
binding result [11]: no binding (tested: 250 µg/ml)
